The text below walks through data of the supplement of paper PMC10567573.

The labels stand for the following.
B1: ZNF8 (parent)
chain: VHVIGVEEPSVGASMLFDIREST
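Also: lentivirally expressed fusions sorted by FACS into six bins by GFP to DsRed ratio, PSI derived from sequencing read proportions per bin multiplied by bin number.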

Variants of B1 are the subject of this data set. Nature of the data set: protein stability index of a GFP-peptide fusion (GPS, HEK-293T) (PSI 1-6); higher = more stable. The following applies: c terminus: native.
As to VHVIGVEEPSVGASKLFDIREST [M15K], the protein stability index came out at 3.24. As for VHVIGVEEPSVGASNLFDIREST [M15N], the figure is 2.75; as for VHVIGVEEPSVGASVLFDIREST [M15V], 1.79. As for VHVIGVEEPSVGASQLFDIREST [M15Q], the figure is 2.75; as for VHVIGVEEPSVGASRLFDIREST [M15R], 2.47.

In the case of VHVIGVEEPSVGASHLFDIREST [M15H], the protein stability index turned out to be 2.4. As for VHVIGVEEPSVGASYLFDIREST [M15Y], the figure is 2.2.

VHVIGVEEPSVGASLLFDIREST [M15L]: the protein stability index was found to be 1.74.

Take VHVIGVEEPSVGASPLFDIREST [M15P]: the protein stability index is 2.78. On to VHVIGVEEPSVGASILFDIREST [M15I], for which the protein stability index turned out to be 2.59. As for VHVIGVEEPSVGASSLFDIREST [M15S], the figure is 2.78; as for VHVIGVEEPSVGASWLFDIREST [M15W], 2.34. Turning to VHVIGVEEPSVGASTLFDIREST [M15T], the protein stability index turned out to be 2.3. In the case of VHVIGVEEPSVGASMLFDIDEST [R20D], the protein stability index was determined as 2.96. As for VHVIGVEEPSVGASMLFDIIEST [R20I], the figure is 1.86. In the case of VHVIGVEEPSVGASMLFDIAEST [R20A] it was 1.64. In the case of VHVIGVEEPSVGASMLFDICEST [R20C] it was 1.85; in that of VHVIGVEEPSVGASMLFDIFEST [R20F], 2.49. Turning to VHVIGVEEPSVGASMLFDIEEST [R20E], the protein stability index was determined as 3.26. Consider VHVIGVEEPSVGASMLFDIHEST [R20H], for which the protein stability index stood at 2.68. In the case of VHVIGVEEPSVGASMLFDIGEST [R20G] it was 2.37. As for VHVIGVEEPSVGASMLLDIREST [F17L], the figure is 2.03; as for VHVIGVEEPSVGASMLQDIREST [F17Q], 3.41; as for VHVIGVEEPSVGASMLVDIREST [F17V], 2.21. In the case of VHVIGVEEPSVGASMLNDIREST [F17N] it was 3.33; in that of VHVIGVEEPSVGASMLSDIREST [F17S], 3.11. Consider VHVIGVEEPSVGASMLYDIREST [F17Y], for which the protein stability index was determined as 2.15. As for VHVIGVEEPSVGASMLPDIREST [F17P], the figure is 3.77; as for VHVIGVEEPSVGASMLDDIREST [F17D], 3.79; as for VHVIGVEEPSVGASMLIDIREST [F17I], 1.74. Take VHVIGVEEPSVGASMLTDIREST [F17T]: the protein stability index worked out at 2.68. VHVIGVEEPSVGASMLHDIREST [F17H]: the protein stability index worked out at 3.17.

As for VHVIGVEEPSVGASMLWDIREST [F17W], the protein stability index was determined as 2.28. Turning to VHVIGVEEPSVGASMLKDIREST [F17K], the protein stability index was found to be 3.4. As for VHVIGVEEPSVGASMLADIREST [F17A], the figure is 3.44; as for VHVIGVEEPSVGASMLEDIREST [F17E], 3.91; as for VHVIGVEEPSVGASMLGDIREST [F17G], 3.66. As for VHVIGVEEPSVGASMLMDIREST [F17M], the figure is 2.52; as for VHVIGVEEPSVGASMLCDIREST [F17C], 2.71. In the case of VHVIGVEEPSVGASMLRDIREST [F17R] it was 3.08; in that of VHVIGVEEPSVGASMLFAIREST [D18A], 1.69. In the case of VHVIGVEEPSVGASMLFNIREST [D18N], the protein stability index was 2.48. As for VHVIGVEEPSVGASMLFCIREST [D18C], the figure is 2.4; as for VHVIGVEEPSVGASMLFSIREST [D18S], 1.75; as for VHVIGVEEPSVGASMLFMIREST [D18M], 2.02. As for VHVIGVEEPSVGASMLFIIREST [D18I], the figure is 3.24. As for VHVIGVEEPSVGASMLFRIREST [D18R], the figure is 1.59. Consider VHVIGVEEPSVGASMLFPIREST [D18P], for which the protein stability index was 1.84. In the case of VHVIGVEEPSVGASMLFVIREST [D18V] it was 2.9; in that of VHVIGVEEPSVGASMLFTIREST [D18T], 1.69; in that of VHVIGVEEPSVGASMLFFIREST [D18F], 2.25. In the case of VHVIGVEEPSVGASMLFKIREST [D18K] it was 1.42; in that of VHVIGVEEPSVGASMLFHIREST [D18H], 1.39. For VHVIGVEEPSVGASMLFGIREST [D18G], the protein stability index stood at 1.65. VHVIGVEEPSVGASMLFEIREST [D18E]: the protein stability index turned out to be 1.31. Take VHVIGVEEPSVGASMLFQIREST [D18Q]: the protein stability index came to 1.98. In the case of VHVIGVEEPSVGASMLFYIREST [D18Y] it was 2.55. In the case of VHVIGVEEPSVGASMLFWIREST [D18W] it was 2.19; in that of VHVIGVEEPSVGASMLFLIREST [D18L], 3.

With VHVIGVEEPSVGASMLFDAREST [I19A], the protein stability index worked out at 3.07. In the case of VHVIGVEEPSVGASMLFDTREST [I19T] it was 2.91; in that of VHVIGVEEPSVGASMLFDVREST [I19V], 2.38; in that of VHVIGVEEPSVGASMLFDEREST [I19E], 3.34. With VHVIGVEEPSVGASMLFDNREST [I19N], the protein stability index worked out at 3.23. In the case of VHVIGVEEPSVGASMLFDHREST [I19H] it was 3.37; in that of VHVIGVEEPSVGASMLFDGREST [I19G], 2.72; in that of VHVIGVEEPSVGASMLFDFREST [I19F], 1.64. Regarding VHVIGVEEPSVGASMLFDYREST [I19Y], the protein stability index was found to be 2.06. As for VHVIGVEEPSVGASMLFDLREST [I19L], the figure is 2.04; as for VHVIGVEEPSVGASMLFDSREST [I19S], 3.29; as for VHVIGVEEPSVGASMLFDCREST [I19C], 2.37. For VHVIGVEEPSVGASMLFDMREST [I19M], the protein stability index is 2.33. As for VHVIGVEEPSVGASMLFDWREST [I19W], the figure is 1.51; as for VHVIGVEEPSVGASMLFDDREST [I19D], 3.65; as for VHVIGVEEPSVGASMLFDRREST [I19R], 2.7.

Take VHVIGVEEPSVGASMLFDKREST [I19K]: the protein stability index was determined as 3.14. As for VHVIGVEEPSVGASMLFDQREST [I19Q], the figure is 3.4.

With VHVIGVEEPSVGASMLFDPREST [I19P], the protein stability index was determined as 3.1. In the case of VHVIGVEEPSVGASMCFDIREST [L16C] it was 2.19; in that of VHVIGVEEPSVGASMDFDIREST [L16D], 3.53; in that of VHVIGVEEPSVGASMAFDIREST [L16A], 2.52. In the case of VHVIGVEEPSVGASMGFDIREST [L16G] it was 2.95; in that of VHVIGVEEPSVGASMQFDIREST [L16Q], 2.87. VHVIGVEEPSVGASMIFDIREST [L16I]: the protein stability index stood at 2.06.

In the case of VHVIGVEEPSVGASMKFDIREST [L16K], the protein stability index was found to be 2.64.

In the case of VHVIGVEEPSVGASMFFDIREST [L16F], the protein stability index was determined as 1.58. In the case of VHVIGVEEPSVGASMTFDIREST [L16T] it was 2.44; in that of VHVIGVEEPSVGASMHFDIREST [L16H], 2.71; in that of VHVIGVEEPSVGASMMFDIREST [L16M], 1.94.

For VHVIGVEEPSVGASMYFDIREST [L16Y], the protein stability index was determined as 2.31. As for VHVIGVEEPSVGASMVFDIREST [L16V], the figure is 2; as for VHVIGVEEPSVGASMWFDIREST [L16W], 1.41. As for VHVIGVEEPSVGASMNFDIREST [L16N], the figure is 3.6; as for VHVIGVEEPSVGASMSFDIREST [L16S], 2.83; as for VHVIGVEEPSVGASMPFDIREST [L16P], 2.48. As for VHVIGVEEPSVGASMEFDIREST [L16E], the figure is 3.17; as for VHVIGVEEPSVGASMRFDIREST [L16R], 2.98.
